# Data as given in the supplement of paper PMC10567573.
# B1: RAB11A (parent)
# chain: AVPTDEARAFAEKNGLSFIETSAL
# B2: KRT71 (parent)
# chain: ELRNVQDVVEDYKKRYEEEINKRT
# Variants of: B1
# Assay: protein stability index of a GFP-peptide fusion (GPS, HEK-293T) (PSI 1-6); higher = more stable
# Settings: c terminus: a fixed tail appended
# 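Also: lentivirally expressed fusions sorted by FACS into six bins by GFP to DsRed ratio, PSI derived from sequencing read proportions per bin multiplied by bin number.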
row,Variant,protein stability index
1,L24A,4
2,L24F,2.73
3,L24P,4.62
4,L24C,3.07
5,L24N,4.47
6,L24I,2.34
7,L24S,4.39
8,L24W,2.72
9,L24H,4.06
10,L24V,3.31
11,L24M,3.08
12,L24R,2.63
13,L24G,5.05
14,L24T,3.98
15,L24Q,3.47
16,L24E,5.03
17,L24Y,3.04
18,L24K,3.53
19,L24D,4.79
20,L16R,3.8
21,L16W,2.6
22,L16Y,3.14
23,L16S,4.35
24,L16P,4.08

row,Variant,protein stability index
1,L16M,3.73
2,L16T,4.14
3,L16V,3.73
4,L16Q,4.2
5,L16N,4.05
6,S17M,2.81
7,S17W,2.66
8,S17P,4.38
9,S17H,3.19
10,S17Y,2.97
11,S17L,2.7
12,S17T,3.36
13,S17G,3.53
14,S17E,4.3
15,S17Q,4.02
16,S17V,2.79
17,S17C,2.52
18,S17N,1.56
19,S17I,2.73
20,S17K,3.23
21,S17D,3.14
22,S17R,3.08
23,S17F,2.62
24,S17A,2.53

row,Variant,protein stability index
1,F18N,4.47
2,F18P,4.68
3,F18D,5.03
4,F18C,4.29
5,F18L,4.14
6,F18S,4.62
7,F18K,4.2
8,F18M,3.93
9,F18G,4.35
10,F18Y,2.62
11,F18W,3.46
12,F18Q,4.33
13,F18H,4.72
14,F18I,3.6
15,F18V,4.35
16,F18A,4.62
17,F18T,4.32
18,F18E,4.57
19,F18R,4.22
20,A23C,2.08
21,A23I,1.65
22,A23R,2.04
23,A23T,2.08
24,A23M,1.81

row,Variant,protein stability index
1,A23G,3.49
2,A23F,1.66
3,A23W,1.55
4,A23D,4.18
5,A23Y,1.81
6,A23P,2.82
7,A23Q,2.52
8,A23L,1.9
9,A23E,3.68
10,A23H,2.04
11,A23S,2.79
12,A23V,2.12
13,A23N,2.87
14,A23K,2.42
15,E20L,1.74
16,E20H,1.87
17,E20K,2.8
18,E20V,1.86
19,E20S,3.01
20,E20G,2.02
21,E20C,2.01
22,E20Y,2.35
23,E20M,1.81
24,E20A,2.27

row,Variant,protein stability index
1,E20D,2.08
2,E20F,1.79
3,E20Q,2.34
4,E20W,1.44
5,E20I,1.8
6,E20P,3.12
7,E20T,2.41
8,E20R,2.5
9,E20N,2.24
10,S22I,1.76
11,S22R,2.25
12,S22T,2.49
13,S22D,3.84
14,S22M,1.95
15,S22Q,3.14
16,S22W,1.6
17,S22Y,2.08
18,S22C,2.54
19,S22F,2.27
20,S22A,2.35
21,S22P,3.73
22,S22K,3.44
23,S22E,4.01
24,S22G,2.91

row,Variant,protein stability index
1,S22H,2.22
2,S22N,3.38
3,S22V,2.64
4,S22L,2.5
5,T21A,2.49
6,T21Q,3.75
7,T21H,2.67
8,T21P,2.15
9,T21M,2.64
10,T21D,4.45
11,T21K,3.37
12,T21C,2.87
13,T21L,2.46
14,T21F,2.37
15,T21I,1.8
16,T21G,1.78
17,T21V,2.12
18,T21R,2.5
19,T21Y,1.5
20,T21N,2.47
21,T21S,3.11
22,T21W,2.39
23,T21E,4.34
24,I19M,3.91

row,Variant,protein stability index
1,I19N,4.43
2,I19W,3.92
3,I19Y,3.81
4,I19H,2.46
5,I19L,3.71
6,I19G,4.5
7,I19R,3.85
8,I19E,4.24
9,I19A,4.39
10,I19K,4.12
11,I19P,4.5
12,I19T,4.17
13,I19V,3
14,I19S,4.41
15,I19C,3.45
16,I19Q,3.6
17,I19F,3.4
18,I19D,4.56

# Variants of: B2
# Assay: as above
# Settings: c terminus: a fixed tail appended
row,Variant,protein stability index
1,K13C,2.71
2,K13A,4.07
3,Q6K,3.75
4,Q6F,4.1
5,Q6N,4.58
6,Q6P,4.41
7,Q6T,3.4
8,Q6G,3.36
9,Q6H,3.15
10,Q6C,2.77
11,Q6W,3.41
12,Q6I,2.54
13,Q6M,3.14
14,Q6Y,3.18
15,Q6A,3.85
16,Q6S,4.01
17,R3Q,4.13
18,R3H,2.78
19,R3M,4.14
20,R3E,4.15
21,R3F,4.32
22,R3P,4.1
23,R3Y,3.86
24,R3T,3.35
25,R3L,2.37

row,Variant,protein stability index
1,R3W,3.47
2,E1F,4.14
3,E1H,4.05
4,E1Q,4.03
5,E1L,3.9
6,E1C,2.23
7,E1N,3.49
8,E1G,2.72
9,E1S,4.07
10,E1K,3.95
11,D7S,3.6
12,D7V,3.23
13,D7E,3.1
14,D7C,3.35
15,D7I,2.62
16,D7Y,3.06
17,D7K,3.28
18,D7N,3.36
19,D7M,3.35
20,D7A,3.68
21,D7F,3.28
22,D7Q,4.58
23,D7P,3.17
24,D7L,3.54
25,D7H,3.13

row,Variant,protein stability index
1,V8K,3.43
2,V8D,4.42
3,V8P,3.67
4,V8M,3.23
5,V8F,3.97
6,V8A,3.37
7,V8N,3.38
8,V8I,3.45
9,V8G,3.49
10,V8L,4.3
11,V8C,3.77
12,V8S,4.53
13,V8W,3.73
14,V8H,2.88
15,V8Q,4.19
16,V8E,3.98
17,D11I,2.82
18,D11R,3.29
19,D11P,3.44
20,D11A,3.55
21,D11T,3.63
22,D11F,3.01
23,D11M,3.31
24,D11K,2.82
25,D11S,3.69

row,Variant,protein stability index
1,D11C,3.98
2,D11N,3.63
3,D11L,3.95
4,D11Q,4.23
5,D11E,3.5
6,D11H,3.77
7,Y12L,3.22
8,Y12S,4.26
9,Y12N,4.89
10,Y12P,3.53
11,Y12D,4.2
12,Y12K,3.08
13,Y12C,4.07
14,Y12E,2.66
15,Y12T,4.05
16,Y12H,4.09
17,Y12M,4.56
18,Y12W,3.98
19,Y12Q,4.12
20,Y12I,3.13
21,Y12V,4.23
22,Y12R,3.66
23,Y12F,3.85
24,E10H,3.71
25,E10V,3.11

row,Variant,protein stability index
1,E10W,2.43
2,E10A,3.17
3,E10T,4.45
4,E10F,4.36
5,E10Q,3.13
6,E10K,3.14
7,E10S,3.65
8,E10C,3.62
9,E10R,4
10,E10I,3.54
11,E10Y,3.26
12,E10M,3.57
13,E10N,4.22
14,E10P,3.41
15,L2S,5.01
16,L2C,3.53
17,L2M,3.99
18,L2P,4.96
19,L2G,5.65
20,L2N,5.02
21,L2D,5.94
22,L2A,5.76
23,N4E,4.45
24,N4I,4.37
25,N4A,4.38

row,Variant,protein stability index
1,N4W,3.17
2,N4M,3.77
3,N4R,4.48
4,N4G,3.65
5,N4T,4.08
6,N4D,4.68
7,N4P,4.67
8,N4F,3.11
9,N4Y,3.59
10,N4H,4.45
11,N4K,4.51
12,N4C,3.9
13,N4S,4.32
14,V9E,4.64
15,V9W,4.36
16,V9H,4.4
17,V9L,3.03
18,V9N,3.24
19,V9I,3.74
20,V9K,3.48
21,V9Y,3.62
22,V9S,4.35
23,V9A,3.69
24,V9Q,3.66
25,V9D,4.93

row,Variant,protein stability index
1,V9R,2.95
2,V9F,3.49
3,V9P,4.21
4,V9G,4.2
5,V9T,3.73
6,V5W,3.7
7,V5D,4.58
8,V5G,3.92
9,V5I,3.88
10,V5N,3.59
11,V5K,3.75
12,V5E,4.43
13,V5C,3.98
14,V5A,3.8
15,V5R,3.22
16,V5P,5.56
17,V5H,4.37
18,V5Q,4.24
19,V5F,3.38
20,V5Y,3.64
21,V5M,3.87
22,V5S,4.01
